Paper doi:10.1101/2024.05.23.595515v1

B1: ADK (human adenosine kinase) (Homo sapiens) (protein)
chain: MTSVRENILFGMGNPLLDISAVVDKDFLDKYSLKPNDQILAEDKHKELFDELVKKFKVEYHAGGSTQNSIKVAQWMIQQPHKAATFFGCIGIDKFGEILKRKAAEAHVDAHYYEQNEQPTGTCAACITGDNRSLIANLAAANCYKKEKHLDLEKNWMLVEKARVCYIAGFFLTVSPESVLKVAHHASENNRIFTLNLSAPFISQFYKESLMKVMPYVDILFGNETEAATFAREQGFETKDIKEIAKKTQALPKMNSKRQRIVIFTQGRDDTIMATESEVTAFAVLDQDQKEIIDTNGAGDAFVGGFLSQLVSDKPLTECIRAGHYAASIIIRRTGCTFPEKPDFH
B2: ADAL (hADAL, adenosine deaminase-like) (Homo sapiens) (protein)
chain: MIEAEEQQPCKTDFYSELPKVELHAHLNGSISSHTMKKLIAQKPDLKIHDQMTVIDKGKKRTLEECFQMFQTIHQLTSSPEDILMVTKDVIKEFADDGVKYLELRSTPRRENATGMTKKTYVESILEGIKQSKQENLDIDVRYLIAVDRRGGPLVAKETVKLAEEFFLSTEGTVLGLDLSGDPTVGQAKDFLEPLLEAKKAGLKLALHLSEIPNQKKETQILLDLLPDRIGHGTFLNSGEGGSLDLVDFVRQHRIPLELCLTSNVKSQTVPSYDQHHFGFWYSIAHPSVICTDDKGVFATHLSQEYQLAAETFNLTQSQVWDLSYESINYIFASDSTRSELRKKWNHLKPRVLHI

Tests used:
Assay in all cases: purified protein
[1] = substrate: CN(C)c1ncnc2c1ncn2[C@@H]1O[C@H](CO)[C@@H](O)[C@H]1O; conditions: ATP 1 mM, 37 °C, HEPES, NaCl, MgCl2, CaCl2
[2] = substrate: CNc1ncnc2c1ncn2[C@@H]1O[C@H](CO)[C@@H](O)[C@H]1O; conditions: ATP 1 mM, 37 °C, HEPES, NaCl, MgCl2, CaCl2
[3] = substrate: CC(C)=CCNc1ncnc2c1ncn2[C@@H]1O[C@H](CO)[C@@H](O)[C@H]1O; conditions: ATP 1 mM, 37 °C, HEPES, NaCl, MgCl2, CaCl2
[4] = substrate: CNc1ncnc2c1ncn2[C@@H]1O[C@H](COP(=O)(O)O)[C@@H](O)[C@H]1O; conditions: 37 °C, HEPES, NaCl, MgCl2, 2-mercaptoethanol
[5] = substrate: CN(C)c1ncnc2c1ncn2[C@@H]1O[C@H](COP(=O)(O)O)[C@@H](O)[C@H]1O; conditions: 37 °C, HEPES, NaCl, MgCl2, 2-mercaptoethanol
[6] = substrate: CC(C)=CCNc1ncnc2c1ncn2[C@@H]1O[C@H](COP(=O)(O)O)[C@@H](O)[C@H]1O; conditions: 37 °C, HEPES, NaCl, MgCl2, 2-mercaptoethanol

| Protein | Km [1] | kcat [1] | Km [2] | kcat [2] | Km [3] | kcat [3] | Km [4] | kcat [4] | Km [5] | kcat [5] | Km [6] | kcat [6] |
| --- | --- | --- | --- | --- | --- | --- | --- | --- | --- | --- | --- | --- |
| B1 | 6.1 ± 0.31 µM | 0.27 ± 0.0024 s⁻¹ | 15 ± 1.8 µM | 0.28 ± 0.0063 s⁻¹ | 10 ± 1.0 µM | 0.18 ± 0.018 s⁻¹ |  |  |  |  |  |  |
| B2 |  |  |  |  |  |  | 47 ± 1.1 µM | 2.4 ± 0.068 s⁻¹ | 65 ± 1.7 µM | 2.6 ± 0.036 s⁻¹ | 35 ± 1.4 µM | 1.9 ± 0.066 s⁻¹ |
